The source of these data is ChEMBL document CHEMBL1152764, “Penicilliols A and B, novel inhibitors specific to mammalian Y-family DNA polymerases” (Bioorg Med Chem, 2009).

Substrate in series [1]: C/C=C/C(=O)C1=C(OC)OC(C)(/C=C/C=C/C(C)O)C1=O
As to the kind of experiment: Activity of mouse DNA polymerase iota using poly(dA/oligo(dT) substrate at 5 uM by Lineweaver-Burke plot.

Substrate in series [2]: C/C=C/C(=O)C1=C(OC)OC(C)(/C=C/C=C/C(C)O)C1=O
Put plainly: Activity of mouse DNA polymerase iota using poly(dA/oligo(dT) substrate at 10 uM by Lineweaver-Burke plot.

Substrate in series [3]: C/C=C/C(=O)C1=C(OC)OC(C)(/C=C/C=C/C(C)O)C1=O
As to the kind of experiment: Activity of mouse DNA polymerase iota using poly(dA/oligo(dT) substrate at 15 uM by Lineweaver-Burke plot.

Substrate in series [4]: C/C=C/C(=O)C1=C(OC)OC(C)(/C=C/C=C/C(C)O)C1=O
Put plainly: Activity of mouse DNA polymerase iota using dTTP substrate at 5 uM by Lineweaver-Burke plot.

Substrate in series [5]: C/C=C/C(=O)C1=C(OC)OC(C)(/C=C/C=C/C(C)O)C1=O
Put plainly: Activity of mouse DNA polymerase iota using dTTP substrate at 10 uM by Lineweaver-Burke plot.

Substrate in series [6]: C/C=C/C(=O)C1=C(OC)OC(C)(/C=C/C=C/C(C)O)C1=O
As to the kind of experiment: Activity of mouse DNA polymerase iota using dTTP substrate at 15 uM by Lineweaver-Burke plot.

B1: DNA polymerase iota (Mus musculus), Q6R3M4 (protein)
chain: MEPLHAGAAGSSRAVCSQGPPTQISSSRVIVHVDLDCFYAQVEMISNPELKDRPLGVQQKYLVVTCNYEARKLGVRKLMNVRDAKEKCPQLVLVNGEDLSRYREMSYKVTELLEEFSPAVERLGFDENFVDLTEMVEKRLQQLPSEEVPSVTVFGHVYNNQSVNLHNIMHRRLVVGSQIAAEMREAMYNQLGLTGCAGVAPNKLLAKLVSGVFKPNQQTVLLPESCQHLIHSLNHIKEIPGIGYKTAKRLEVLGINSVHDLQTFPIKTLEKELGIAIAQRIQQLSFGEDKSPVTPSGPPQSFSEEDTFKKCSSEVEAKAKIEELLSSLLTRVCQDGRKPHTVRLVIRRYSDKHCNRESRQCPIPSHVIQKLGTGNHDSMPPLIDILMKLFRNMVNVKMPFHLTLMSVCFCNLKALSSAKKGPMDCYLTSLSTPAYTDKRAFKVKDTHTEDSHKEKEANWDCLPSRRIESTGTGESPLDATCFPKEKDTSDLPLQALPEGVDQEVFKQLPADIQEEILYGKSRENLKGKGSLSCPLHASRGVLSFFSTKQMQASRLSPRDTALPSKRVSAASPCEPGTSGLSPGSTSHPSCGKDCSYYIDSQLKDEQTSQGPTESQGCQFSSTNPAVSGFHSFPNLQTEQLFSTHRTVDSHKQTATASHQGLESHQGLESRELDSAEEKLPFPPDIDPQVFYELPEEVQKELMAEWERAGAARPSAHR
Usually Vmax stands for the rate approached at saturating substrate. On to B1, for which the Vmax in series [1] was found to be 31.1 pmol/h; in series [2], 20 pmol/h; in series [3], 14.8 pmol/h; in series [4] it was 35.7 pmol/h; in series [5] it was 27.6 pmol/h; in series [6], 22.5 pmol/h.
